The record followed here is paper PMC4231364, “Functional characterization and structural modeling of synthetic polyester-degrading hydrolases from Thermomonospora curvata” (AMB Express, 2014).

Substrate in data set [1]: CCCC(=O)Oc1ccc([N+](=O)[O-])cc1
As to the kind of experiment: esterase assay in microplate, Michaelis-Menten kinetics. Type of data set: biochemical, Thermomonospora curvata. Conditions: 25°C, pH 8.5. An excerpt:
esterase assay in microplate, Michaelis-Menten kinetics on Tcur1278

Substrate in data set [2]: CCCC(=O)Oc1ccc([N+](=O)[O-])cc1
The description is as above. Conditions: 25°C, pH 8.5. Type of data set: biochemical, Thermomonospora curvata. An excerpt: esterase assay in microplate, Michaelis-Menten kinetics on Tcur0390
The source holds these as a separate data set.

B1: Tcur1278 (Thermomonospora curvata DSM 43183) (protein)
chain: ANPYQRGPDPTESLLRAARGPFAVSEQSVSRLSVSGFGGGRIYYPTTTSQGTFGAIAISPGFTASWSSLAWLGPRLASHGFVVIGIETNTRLDQPDSRGRQLLAALDYLTQRSSVRNRVDASRLAVAGHSMGGGGTLEAAKSRTSLKAAIPIAPWNLDKTWPEVRTPTLIIGGELDSIAPVATHSIPFYNSLTNAREKAYLELNNASHFFPQFSNDTMAKFMISWMKRFIDDDTRYDQFLCPPPRAIGDISDYRDTCPHT
notes: mature protein without signal peptide, C-terminal His-tag, codon-optimised synthetic gene, pBAD TOPO, E. coli TOP10, IMAC purified, approx. 35 kDa
One may read the Km as the concentration of substrate that gives half-maximal velocity. A word on the kcat: it is the number of substrate molecules converted per active site and unit of time at saturation. Turning to B1, in data set [1], the Michaelis constant (Km) was 88.8 ± 12.8 µM and the catalytic constant (kcat) came to 2.3 ± 0.1 s⁻¹.

B2: Tcur0390 (Thermomonospora curvata DSM 43183) (protein)
chain: ANPYQRGPNPTEASITAARGPFNTAEITVSRLSVSGFGGGKIYYPTTTSEGTFGAIAISPGFTAYWSSLEWLGHRLASQGFVVIGIETNTTLDQPDQRGQQLLAALDYLTQRSAVRDRVDASRLAVAGHSMGGGGSLEAAKARTSLKAAIPLAPWNLDKTWPEVRTPTLIIGGELDAVAPVATHSIPFYNSLSNAPEKAYLELDNASHFFPNITNTQMAKYMIAWMKRFIDDDTRYTQFLCPPPSTGLLSDFSDARFTCPM
notes: as for B1
With B2, in data set [2], the Km came to 83.1 ± 11.1 µM and the kcat was 12.4 ± 0.4 s⁻¹.
